Source: patent US20200247855A1 (published 2020)

T1: CXCL11_HUMAN (human, UniProt O14625 22-94)
T1 chain: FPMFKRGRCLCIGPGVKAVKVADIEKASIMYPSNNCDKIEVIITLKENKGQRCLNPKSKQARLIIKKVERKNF


Key:
Test in all cases: BLI
CXCL8_HUMAN = CXCL8_HUMAN (human, UniProt P10145 28-99)
CXCL1_HUMAN = CXCL1_HUMAN (human, UniProt P09341 35-107)
CXCL2 = biological target: CXCL2
CXCL3_HUMAN = CXCL3_HUMAN (human, UniProt P19876 35-107)
CXCL5 = biological target: CXCL5
CXCL13 = biological target: CXCL13
CXCL11_HUMAN = biological target: T1, CXCL11_HUMAN
CXCL10_HUMAN = CXCL10_HUMAN (human, UniProt P02778 22-98)
Chain of CXCL10_HUMAN (P02778 22-98): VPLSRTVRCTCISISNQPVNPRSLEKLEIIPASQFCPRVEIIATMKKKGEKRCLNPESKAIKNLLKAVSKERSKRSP

CXCL6 = biological target: CXCL6
CXCL4 = biological target: CXCL4

Chain of CXCL3_HUMAN (P19876 35-107): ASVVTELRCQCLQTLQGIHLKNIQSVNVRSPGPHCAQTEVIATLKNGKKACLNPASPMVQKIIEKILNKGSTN
Chain of CXCL1_HUMAN (P09341 35-107): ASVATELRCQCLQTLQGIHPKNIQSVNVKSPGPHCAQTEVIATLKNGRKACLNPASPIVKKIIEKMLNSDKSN
Chain of CXCL8_HUMAN (P10145 28-99): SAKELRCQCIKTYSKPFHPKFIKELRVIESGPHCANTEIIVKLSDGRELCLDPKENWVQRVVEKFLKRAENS

Binder	Kd (CXCL8_HUMAN)	Kd (CXCL1_HUMAN)	Kd (CXCL2)	Kd (CXCL3_HUMAN)	Kd (CXCL5)	Kd (CXCL13)	Kd (CXCL11_HUMAN)	Kd (CXCL10_HUMAN)	Kd (CXCL6)	Kd (CXCL4)
P1166_IXORI (other) GPETKEDKKSDVYELFTVEYCGTNCTLLTNGRWTACTGKKGTCRCYHESGEKVGLCLSTEYTDFSEYPNPKSSEIDAAAPLPRETH	129 nM	12.9 nM	149 nM							
P1127_IXORI (other) AGKDDEHFSVDYCGMNCTQQEDGSWTACSGRNGECRCYHESGKRSGLCLSTTYIDFSEYGNLSDSDIAAASPRLSMKESH	13.3 nM	1.42 nM	27.8 nM	68.8 nM	26.6 nM					
P1128_IXORI (other) KDDEHFSVDYCGMNCTQQEDGSWTACSGRNEECRCYHESGKKNGLCLSTTYIDFSQYGNPSDSDIAAASPRP	2.3 nM	0.722 nM	5.57 nM	38.5 nM	62.2 nM					
P1170_IXORI (other) LGDEDQLFSVEYCGTNCTQQDDGKWTPCSGKNGKCKCYHEDGKRYGLCLYTEYTDFSQYPNPEGSEIENTRPRP	12.3 nM	59.6 nM								
P942_IXORI (other) NQLSGPQSSANSNEAVFCDTNCTQGTDEAWSGCRGDCFCVYVGNSTEGRCMMLSGDFDYSTPGAED		3.09 nM	6.48 nM	5.04 nM	21.1 nM	39.5 nM	12.4 nM	133 nM	7.28 nM	148 nM
P1086_IXORI (other) GSKGQRASQVSETSITAEFCDTSCTQGTDKTWSGCSGDCFCVHVGNDTEGRCMRWDGDYPSAEEEE		11.4 nM	34 nM	15.2 nM	26 nM	22.7 nM		18.7 nM	10.7 nM	
P675_IXORI (other) GSNQLSGPQSSANSNDAVFCDTNCTQGTDGAWSGCRGDCFCVHVGNSTEGRCIELIGDFDYSTPGAED		9.99 nM	24.8 nM	35.7 nM	34.2 nM	582 nM	7.73 nM	3120 nM	7.68 nM	422 nM
P1095_IXORI (other) HSPVAGSEVQKLTSDPNDDIDVSYCGMNCTVVNGKSDECSENCKCLHEGDDPKGICVAITYFGDWGDPNDDPKINEATPQTQIFEKKRK	110 nM									
P1077_IXORI (other) GSKQLIGPQSSTNSIKAEFCDTNCTAGTNGIWNGCSGDCFCTHVGNSTEGRCMKITGFDEYPTSEAEE		7.53 nM	264 nM	16 nM	55.7 nM		538 nM		29.3 nM	
P1132_IXORI (other) LSDEDELFSVEYCGTNCTKQDTGSWTTCSGNCTCYHEDGKKVGLCLSTEYTDFTKFPKPTSEEIANARPLPKREKTLN	32.8 nM	11.9 nM	18.6 nM		152 nM					
P1074_IXORI (other) GSKESSAHQSSDDSIKAEFCDAKCTMKTDGKWTQCHGGCFCVHVGNETEGRCMRLDGDYDYPSTQPEE		27.8 nM		24 nM	42.7 nM	95.8 nM	12 nM	40.7 nM		157 nM
P1100_IXORI (other) GSKGSSASQSSDNSVVAKFCDTNCTINEGGKWTECKGGCFCVHVGNETVGRCMKLDGDYDYPSPKPEE		49.9 nM	185 nM	55.9 nM	50.8 nM	714 nM	102 nM	380 nM	15.2 nM	
P1078_IXORI (other) GSKGSSAQQSSHDSIKAEFCETNCTMKTGGKWTQCHGGCFCVHVGNETVGRCIKLDGDYDYPSSKHEE		6.35 nM	68.3 nM	43.8 nM	39.2 nM	255 nM	16.7 nM		9.24 nM	
P1090_IXORI (other) GSKELSGPESSENSIEAAFCDTNCTEGTDGVWSGCSAGCFCVHVGNSTVGRCMTFNGVDGG		3.55 nM	3.03 nM	7.67 nM	43 nM	12.5 nM	3.85 nM	23.9 nM	2.82 nM	
P1229_IXORI (other) DDEFFTVDYCGMNCTLQQDGSWTPCTQKNAECKCYHESGSSVGLCLSTAYTDFNQFGDPNNSDLDAATPRHPDASSR	30.7 nM	13.4 nM								
P1162_IXORI (other) LNDEELFTVDYCGTNCTQQPNGSWTTCPGNCSCYHEDGKTDGFCLSTEYTDFTQFPNLTSEEMDAATPRPE	12.2 nM	2.66 nM	14.4 nM	60.1 nM	32.1 nM					
P1172_IXORI (other) LHEDEIFTVDYCGTNCTKQSNGSWTTCPGNCSCYHEDGKTDGFCLSTEYTDFTQFPNLTSEEMDAATPRPE	26.7 nM	5.59 nM	26 nM		59.3 nM					
P1124_IXORI (other) DSKGTSDSQDSTKSIKVDFCETNCTKTDGGWTGCTGDCICVSVGDSIEGRCMDFG		7.61 nM	13.8 nM	8.84 nM	26.4 nM	256 nM			231 nM	
P1134_IXORI (other) NEEVFTVEYCGMNCTQKSDGTWTECSGKNKDCRCYHESDAREGLCLSTEYTDFSQFETPSNSDLEAATPRPRKTLYPVRNPHGPKTRGLGYDKRILRDRVKFLI		27.3 nM								
P1168_IXORI (other) GQDTDGKEKSDEYELFTVEYCGTNCTQLENGSWTACTGKNGTCRCFHENDKKVGLCLSTEYTDFSEYPDPNSEEIKAASPLP	20.7 nM	5.91 nM	29.9 nM							
EVA3_RHISA (protein) LVSTIESRTSGDGADNFDVVSCNKNCTSGQNECPEGCFCGLLGQNKKGHCYKIIGNLSGEPPVVRR	2.57 nM	5.73 nM		7.37 nM						
P458_IXORI (other) GSKQPGAAGSSSDSVEAVFCPTNCTKGTNGAWSGCSDDCICVHVGENTEGSCMKFSGDYDYPTPEA		16.6 nM	4.55 nM	7.83 nM	19.1 nM	13.8 nM			4.97 nM	
P1174_IXORI (other) LNNENELFSVEYCGANCTQQDNGSWTKCKGNCTCYHEDGKRYGLCLSTEYTDFTQFPKPTSEEIADASPRPKETNSH	81.7 nM	15.4 nM								
P1104_IXORI (other) ESKEASASQGPGKSFKVEFCETNCTENNGVWSGCTGDCICVSVGDSKEGRCMDLGDKVIDTPVAQG		14.4 nM	82.3 nM	43.7 nM	245 nM	220 nM			34.3 nM	
P1096_IXORI (other) HTTVTGSVEGKPNNPNEDIEVSYCRMNCTVENGVSSACSGDCVCVHRDNEPNGICVEITYFGDFGDPSQDPSIDEAAPRESVSKRRSNGES	44.7 nM									
P1080_IXORI (other) SAGSKGSSAPQSSGDSVVAEFCDTNCTMKKDGKWTECNGDCFCVHVGNETVGRCMRLDGDYDYTSSKTTRRNKKTRNGLCRLDRNRTTVDYPERNTREP		55.1 nM	392 nM	124 nM	56.6 nM	1110 nM	73.3 nM	1260 nM	11 nM	2310 nM
